How the values were obtained:
Assay in all cases: SPR
[1] = biological target: recombinant SOCS1 in complex with Elongins BC (UniProt O15524)
[2] = biological target: recombinant CIS in complex with Elongins BC (GST removed) (human) (UniProt Q9NSE2)
[3] = biological target: recombinant SOCS2 in complex with Elongins BC (UniProt O14508)

## ARAP2-pY415 peptide (competitor phosphopeptide)
[1]
  IC50: 50 nM
[2]
  IC50: 200 nM
[3]
  IC50: 1660 nM

— doi:10.1101/2025.04.28.650977
